Literature values in paper PMC2628467.

Biological target: RNase H folding intermediate mimic (Escherichia coli) (UniProt P0A7Y4)

RNase H folding intermediate mimic (from UniProt P0A7Y4)
Kd: 0.5 µM
